US9217013B2, “Treatment of amyloidoses using myelin basic protein and fragments thereof” (The Research Foundation for the State University of New York, priority 2008, dated 2015)

How the values were obtained:
fibrillar Aβ = molecular target: T1, fibrillar Aβ (Homo sapiens, UniProt P05067, E693Q); assay: Solid-phase binding assay, competition against biotinylated sAβPPα
T1 construct: made in house; host or cells: chemical synthesis (solid-phase Fmoc)
Method: Aβ peptides or amylin were assembled into fibrils as described above. […] Two μg of each fibrillar Aβ peptide, fibrillar amylin, or ovalbumin in 100 μl of phosphate-buffered saline (PBS) were dried in a 96-well microtiter plate (Corning, Cambridge, Mass.) overnight at 37° C. The wells were rinsed with PBS three times and blocked with 100 μl per well PBS containing 1 mg/ml bovine serum albumin (BSA) for 1 hour at room temperature. After rinsing three times with PBS, known concentrations of biotinylated sAβPPα in PBS containing 0.1 mg/ml BSA were incubated in triplicate (100 μl per well) for 1 hour at room temperature. After rinsing the wells with PBS three times, 100 μl of streptavidin conjugated to horseradish peroxidase in PBS containing 0.1 mg/ml BSA (1:800) was added for 1 hour at room temperature. The binding of biotinylated sAβPPα was detected using the colorimetric substrate o-phenylenediamine dihydrocholride as described by the manufacturer (InVitrogen). Briefly, the substrate was diluted in buffer (0.1 M sodium citrate, pH 4.5) to a final concentration of 1 mg/ml. H202 was added to a final concentration of 0.012% immediately before 100 μl of the substrate was added to each microtiter well. […] The conversion of the colorimetric substrate was measured at a wavelength of 490 nm using a Molecular Dynamics Vmax kinetic plate reader (Sunnyvale, Calif.). […]

[1] = molecular target: T2, HCSM cell surface fibrillar Aβ (Homo sapiens, UniProt P05067, E693Q); assay: Endogenous sAβPPα binding to fibrillar Aβ on HCSM cell surface; type: cell-based; details: AβPP-(105-119) at higher concentrations
T2 construct: made in house; host or cells: chemical synthesis (solid-phase Fmoc)

[2] = molecular target: T3, fibrillar Dutch-type Aβ-(1-40) (Homo sapiens, UniProt P05067, E693Q); assay: Solid-phase binding of GST-AβPP-(18-119) proteins to fibrillar Dutch-type Aβ; details: for binding to fibrillar Aβ compared with wild-type GST-AβPP-(18-119): alanine substitution mutants
T3 construct: made in house; host or cells: chemical synthesis (solid-phase Fmoc)
Method: (§1) Aβ peptides or amylin were assembled into fibrils as described above. […] Two μg of each fibrillar Aβ peptide, fibrillar amylin, or ovalbumin in 100 μl of phosphate-buffered saline (PBS) were dried in a 96-well microtiter plate (Corning, Cambridge, Mass.) overnight at 37° C. The wells were rinsed with PBS three times and blocked with 100 μl per well PBS containing 1 mg/ml bovine serum albumin (BSA) for 1 hour at room temperature. After rinsing three times with PBS, known concentrations of biotinylated sAβPPα in PBS containing 0.1 mg/ml BSA were incubated in triplicate (100 μl per well) for 1 hour at room temperature. After rinsing the wells with PBS three times, 100 μl of streptavidin conjugated to horseradish peroxidase in PBS containing 0.1 mg/ml BSA (1:800) was added for 1 hour at room temperature. The binding of biotinylated sAβPPα was detected using the colorimetric substrate o-phenylenediamine dihydrocholride as described by the manufacturer (InVitrogen). Briefly, the substrate was diluted in buffer (0.1 M sodium citrate, pH 4.5) to a final concentration of 1 mg/ml. H202 was added to a final concentration of 0.012% immediately before 100 μl of the substrate was added to each microtiter well. The solution was developed for =30 min at room temperature and quenched by the addition of 50 μl of 4N H2SO4 to each well. The conversion of the colorimetric substrate was measured at a wavelength of 490 nm using a Molecular Dynamics Vmax kinetic plate reader (Sunnyvale, Calif.).
(§2) Bound secondary antibody was detected using the colorimetric substrate as described above.
However, this small peptide was not nearly as effective as the larger, recombinantly expressed AβPP-(18-119) in binding to fibrillar Aβ. Therefore, alanine-scanning mutagenesis studies of the AβPP-(105-119) sequence within AβPP-(18-119) were performed to further identify key epitopes important in facilitating its binding to fibrillar Aβ. Alanine residues were introduced from Cys^105 through Cys^117 of AβPP-(18-119) by site-directed mutagenesis of the AβPP-(18-119) cDNA. Each mutant AβPP-(18-119) cDNA was expressed as a GST fusion protein and purified, and the concentrations were carefully determined by quantitative immunoblotting as described in “Experimental Procedures”.

fibrillar amylin peptide = molecular target: T4, fibrillar amylin peptide (Homo sapiens, UniProt P10997); assay: Solid-phase binding of GST-AβPP-(18-119) proteins to fibrillar amylin
T4 construct: Amylin peptide was obtained from Bachem (San Carlos, Calif.); purchased Bachem (San Carlos, Calif.)
T4 sequence (P10997 34-70 limits assumed): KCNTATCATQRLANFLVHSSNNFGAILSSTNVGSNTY
Method: as §1, with “H202 was added to a final concentration of 0.012% immediately before 100 μl of the substrate was added to each microtiter well. The solution was developed for =30 min at room temperature and quenched by the addition of 50 μl of 4N H2SO4 to each well.” left out
as §2

[3] = molecular target: T5, fibrillar wild-type Aβ-(1-42) (Homo sapiens, UniProt P05067); assay: Solid-phase binding of GST-AβPP-(18-119) proteins to fibrillar wild-type Aβ-(1-42)
T5 construct: made in house; host or cells: chemical synthesis (solid-phase Fmoc)
Method: as §1, with “H202 was added to a final concentration of 0.012% immediately before 100 μl of the substrate was added to each microtiter well. The solution was developed for =30 min at room temperature and quenched by the addition of 50 μl of 4N H2SO4 to each well.” left out
as §2

HCSM cells = assay: HCSM cell viability (live/dead assay) after Dutch-type Aβ-(1-40); type: cell-based, human; details: 25 μM Dutch-type Aβ-(1-40), 1 μM protein, 6 days at 37° C.
Description: Primary cultures of HCSM cells were established and characterized. Two lines of HCSM cells were used in these studies. One was derived from a AD patient and the other was derived from a person control. All HCSM cells were used between passages 4-7 and maintained in 24-well tissue culture dishes with Dulbecco's […] containing 10% fetal bovine serum (Gemini Bio-Products, Calabasas, Calif.), non-essential amino acids, and antibiotics (Invitrogen). For experiments, near-confluent cultures of HCSM cells were placed in serum-free medium containing 0.1% BSA, non-essential amino acids, and antibiotics overnight prior to treatment. Freshly solubilized Dutch-type Aβ-(1-40) at a final concentration of 25 μM was added to the cultures in serum-free medium and incubated at 37° C. for 6 days. Cells were routinely viewed and photographed using an Olympus IX70 phase-contrast microscope. Cell viability was quantified using a fluorescent live/dead cell assay following the manufacturer's protocol (Molecular Probes, Eugene, Oreg.). The number of live and dead cells were counted from several fields (n=4) from at least three separate wells for each experiment.
Incubation of HCSM cells with pathogenic Dutch-type Aβ-(1-40) leads to cell death. […]

Aβ40DI = Aβ40DI (Homo sapiens, UniProt P05067, D694N/E693Q); assay: Thioflavin T fluorescence assay of Aβ40DI fibril formation; type: biochemical; details: 12.5 μM Aβ40DI, 1.56 μM protein, PBS, 37° C.
Method: FIG. 16 Thioflavin T analysis of inhibition of CAA mutant Aβ fibril formation by MBP. Aβ40DI at a concentration of 12.5 μM in PBS in the absence (□) or presence of 1.56 μM MBP(□) or bovine a-lactalbumin (Lalb; □) as a control. At specific time points, aliquots were collected from each sample and analyzed by thioflavin T binding and fluorescence to determine fibrillar assembly. Data represent the means±S.D. of triplicate samples. A.U., arbitrary units.
The Aβ B binding properties of the exemplary fragments of MBP described herein were determined in a thioflavin T fluorescence assay as follows: Lyophilized Aβ peptides were first resuspended with Me2SO to 2.5 mM, diluted to 12.5 μM in PBS, and then incubated at 37° C. with rocking either alone or with 1.56 μM MBP or bovine α-lactalbumin. Control samples containing 0.5% Me2SO and 1.56 μM MBP or lactalbumin in PBS were also included. At each time point, 100 μl samples of each reaction were placed in a 96-well microplate in triplicate, and 5 μl of 100 µM thioflavin T was added. The plate was mixed and incubated at 22° C. in the dark for 10 min. Fluorescence was measured at 490 nm with an excitation wavelength of 446 nm in a SpectraMax spectrofluorometer (Molecular Devices, Sunnyvale, Calif.) using SoftMax Pro control software. It is apparent that the method enables persons of skill in the art to determine the binding properties of MBP, variants thereof, and fragments thereof for any Aβ-peptide, including mutants thereof.

[4] = molecular target: Dutch/Iowa CAA mutant Aβ40 (Aβ40DI) (Homo sapiens, UniProt P05067, D694N/E693Q); assay: Surface plasmon resonance binding to immobilized Dutch/Iowa Aβ40
Method: All runs were performed on a Biacore 2000 instrument using 10 mM HEPES (pH 7.4), 150 mM NaCl, 3 mM EDTA, and 0.005% (v/v) Tween 20 as running buffer and diluent. Streptavidiri was conjugated to the surface of three flow cells of a CM5 chip at 10 μl/min using amine coupling chemistry to a final average response level of 1890.2 response units. N-terminally biotinylated Aβ peptides were resuspended in Me2SO to 2.5 mM and serially diluted to 13 nM immediately before application. Biotinylated Aβ40WT and Aβ40DI were bound to individual flow cells at 10 μl/min to achieve an average relative response level of 157.1 response units, leaving flow cell 1 as reference. […] The resultant Rmax of these surfaces was ˜700 response units with MBP as analyte. Purified MBP was passed over all four flow cells at 5, 10, 25, 50, and 100 nM at a flow rate of 30 μl/min for kinetic measurements. […] Surfaces were regenerated with 0.2 M glycine (pH 2.0) and 150 mM NaCl between runs. The resulting sensorgrams were analyzed by BIAanalysis software. Triplicate concentration series were used for each surface.
Using recombinant methodology to express and purify regions of the 18.5 kDa human MBP protein and test their abilities to bind Aβ and inhibit fibrillogenesis, cDNAs were prepared for the following regions of MBP shown in FIG. 3. The cDNAs for MBP fragments were cloned into pTYB11 plasmids containing an ampr gene and transformed into competent E. coli BL21 DE3 cells. Expression of cDNAs in this vector results in a fusion protein containing a chitin binding domain (CBD) as well as a self-cleavable intein protein from S. cerevisiae. CBD-Intein-MBP fusion proteins were captured on chitin beads from the resulting cell lysates. MBP protein fragments were eluted by inducing the cleavage between the C-terminus of the intein and the N-terminus of MBP by exposure to dithiothreitol. […] MBP was further purified by cation exchange chromatography on CM52 resin, resulting in a >95% pure protein preparations. Each of the four MBP fragments were tested for binding to Dutch/Iowa Aβ40 and wild-type Aβ42 by surface plasmon resonance (FIG. 4).

## AβPP-(105-119): synthesized 15 amino acid peptide spanning residues 105-119 of AβPP (CKTHPHFVIPYRCLV)
Fibrillar Aβ; 1 mM peptide
  competition of biotinylated sAβPPα binding to fibrillar Aβ: ≈ 80%
[1]
  inhibition of endogenous sAβPPα binding to HCSM cell surface fibrillar Aβ: partially diminish

## F111A
[2]
  binding to fibrillar Aβ compared with wild-type GST-AβPP-(18-119): little or no effect

## C117A mutant GST-AβPP-(18-119): GST-AβPP-(18-119) with alanine substitution at Cys117
[2]
  binding to fibrillar Aβ compared with wild-type GST-AβPP-(18-119): markedly diminished binding
[2]; listed as C117A
  binding to fibrillar Aβ compared with wild-type GST-AβPP-(18-119): substantially affects

## AβPP-(102-116): synthesized overlapping 15-mer peptide of AβPP residues 102-116 (RKQCKTHPHFVIPYR)
Fibrillar Aβ; data not shown
  competing activity of overlapping 15-mer peptides: approximately half that of AβPP-(105-119)

## I113A: GST-AβPP-(18-119) with alanine substitution at Ile113
Fibrillar amylin peptide
  binding to fibrillar amylin peptide compared with wild-type GST-AβPP-(18-119): considerably reduced binding
[3]
  binding to fibrillar wild-type Aβ-(1-42) compared with wild-type GST-AβPP-(18-119): considerably reduced binding
[2]
  binding to fibrillar Aβ compared with wild-type GST-AβPP-(18-119): markedly decreased binding
[2]; listed as Ile^113
  binding to fibrillar Aβ compared with wild-type GST-AβPP-(18-119): highly diminished

## H110A mutant GST-AβPP-(18-119): GST-AβPP-(18-119) with alanine substitution at His110
Fibrillar amylin peptide
  binding to fibrillar amylin peptide compared with wild-type GST-AβPP-(18-119): considerably reduced binding
[3]
  binding to fibrillar wild-type Aβ-(1-42) compared with wild-type GST-AβPP-(18-119): considerably reduced binding
HCSM cells
  prevention of Aβ-induced HCSM cell death: incapable of preventing the cytotoxic effects
[2]
  fibrillar Aβ binding compared with wild-type GST-AβPP-(18-119): < 10%
[2]; listed as H110A
  binding to fibrillar Aβ compared with wild-type GST-AβPP-(18-119): markedly decreased binding
[2]; listed as His^110
  binding to fibrillar Aβ compared with wild-type GST-AβPP-(18-119): highly diminished

## P109A
[2]
  binding to fibrillar Aβ compared with wild-type GST-AβPP-(18-119): little or no effect

## GST-AβPP-(18-119): glutathione S-transferase fusion protein of AβPP residues 18-119, wild-type
[1]
  inhibition of endogenous sAβPPα binding to HCSM cell surface fibrillar Aβ: completely inhibited
HCSM cells
  Aβ-induced HCSM cell death: < 10%

B1: MBP1 ΔKRG: MBP1 mutant with alanine substitutions in the KRG region (residues 54-56) (protein)
chain: MASQKRPSQRHGSKYLATASTMDHARHGFLRPHRDTGILDSIGRFFGGDRGAPAAASGKDSHHP
Aβ40DI
  inhibition of Aβ40DI fibril assembly (thioflavin T): lack fibril inhibition
[4]
  binding to Dutch/Iowa Aβ40 (Aβ40DI) by surface plasmon resonance: do not bind

B2: MBP1 ΔHP: MBP1 mutant with alanine substitutions at HP (residues 63-64) (protein)
chain: MASQKRPSQRHGSKYLATASTMDHARHGFLRPHRDTGILDSIGRFFGGDRGAPKRGSGKDSHAA
Aβ40DI
  inhibition of Aβ40DI fibril assembly (thioflavin T): lack fibril inhibition
[4]
  binding to Dutch/Iowa Aβ40 (Aβ40DI) by surface plasmon resonance: do not bind

B3: MBP1 S57A (protein)
chain: MASQKRPSQRHGSKYLATASTMDHARHGFLRPHRDTGILDSIGRFFGGDRGAPKRGAGKDSHHP
[4]
  binding to Dutch/Iowa Aβ40 (Aβ40DI) by surface plasmon resonance: does bind
